Test results published in US20210324076A1 (AMPHIVENA THERAPEUTICS, published 2021).
Several values for one entry are separate records, joined by “and”; a condition that tells them apart may be missing. Equal entries are not always repeated.

Assays:
human CD33 [1] = target: T1, human CD33 (human, UniProt P20138 18-364); assay: cell-based or functional assay
human CD33 [2] = target: T1, human CD33; assay: cell-based or functional assay; remark: listed apart in the source
human CD3 [3] = target: T2, human CD3 (human, UniProt P07766 23-207; P09693 23-182; P04234 22-171; P20963 22-164); assay: cell-based or functional assay
T2 sequence (P07766 23-207, chain 1 of 4): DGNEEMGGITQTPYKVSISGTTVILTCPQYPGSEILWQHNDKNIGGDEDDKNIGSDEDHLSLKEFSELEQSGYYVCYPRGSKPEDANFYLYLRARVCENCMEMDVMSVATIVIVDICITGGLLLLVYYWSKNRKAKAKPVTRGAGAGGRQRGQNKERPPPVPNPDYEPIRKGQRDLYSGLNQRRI
T2 sequence (P09693 23-182, chain 2 of 4): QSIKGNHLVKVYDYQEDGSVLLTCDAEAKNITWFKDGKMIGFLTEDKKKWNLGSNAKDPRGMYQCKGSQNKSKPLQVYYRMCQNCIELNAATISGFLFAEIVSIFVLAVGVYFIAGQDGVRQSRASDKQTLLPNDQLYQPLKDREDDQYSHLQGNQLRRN
T2 sequence (P04234 22-171, chain 3 of 4): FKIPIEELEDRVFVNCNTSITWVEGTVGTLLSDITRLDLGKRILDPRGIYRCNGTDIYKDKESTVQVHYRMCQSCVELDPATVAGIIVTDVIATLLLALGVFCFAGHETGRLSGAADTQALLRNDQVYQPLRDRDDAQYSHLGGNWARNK
T2 sequence (P20963 22-164, chain 4 of 4): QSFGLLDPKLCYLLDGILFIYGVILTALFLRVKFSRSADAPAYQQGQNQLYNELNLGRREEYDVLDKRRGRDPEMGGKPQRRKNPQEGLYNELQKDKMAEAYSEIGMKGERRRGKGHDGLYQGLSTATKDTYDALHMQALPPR

human CD33 [4] = target: T1, human CD33; assay: cell-based or functional assay; remark: listed apart in the source
human CD33 [5] = target: T1, human CD33; assay: cell-based or functional assay; remark: listed apart in the source
human CD3 [6] = target: T2, human CD3; assay: flow cytometry titration on human CD3+ T cells/Jurkat, anti-His detection
Experimental: Cells were incubated with 100 μL of serial dilutions of CD33/CD3 2×2 T-cell engagers. After washing three times with FACS buffer the cells were incubated with 0.1 mL of […] mouse monoclonal anti-His antibody in the same buffer for 45 min on ice. After a second washing cycle, the cells were incubated with 0.1 mL of […] FITC-conjugated goat anti-mouse IgG antibodies under the same conditions as before. As a control, cells were incubated with the anti-His IgG followed by the FITC-conjugated goat anti-mouse IgG antibodies without anti-CD33 2×2 T-cell engagers. […] The fluorescence of 1×10⁴ living cells was measured using a Beckman-Coulter FC500 MPL flow cytometer using the MXP software (Beckman-Coulter, Krefeld, Germany) or a Millipore Guava EasyCyte flow cytometer using the Incyte software (Merck Millipore, Schwalbach, Germany). Mean fluorescence intensities of the cell samples were calculated using CXP software (Beckman-Coulter, Krefeld, Germany) or Incyte software (Merck Millipore, Schwalbach, Germany). After subtracting the fluorescence intensity values of the cells stained with the secondary and tertiary reagents alone the values were used for calculation of the KD values with the equation for one-site binding (hyperbola) of the GraphPad Prism (version 6.00 for Windows, GraphPad Software, La Jolla Calif. USA). […]

T1 sequence (P20138 18-364): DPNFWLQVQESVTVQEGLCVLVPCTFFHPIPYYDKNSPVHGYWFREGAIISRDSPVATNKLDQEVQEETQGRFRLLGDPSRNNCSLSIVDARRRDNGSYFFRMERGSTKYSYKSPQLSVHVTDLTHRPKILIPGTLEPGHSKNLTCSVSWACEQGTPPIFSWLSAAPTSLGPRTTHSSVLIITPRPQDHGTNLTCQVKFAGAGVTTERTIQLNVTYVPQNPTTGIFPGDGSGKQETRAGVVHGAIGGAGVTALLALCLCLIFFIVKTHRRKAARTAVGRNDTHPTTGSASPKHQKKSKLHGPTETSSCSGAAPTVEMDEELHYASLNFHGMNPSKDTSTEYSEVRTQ

B1: CD33/CD3 2×2 T-cell engager 12 (bispecific antibody)
chain: DIQMTQSPSSLSASVGDRVTITCRSSTGAVTTSNYANWVQQKPGKAPKALIGGTNKRAPGVPSRFSGSLIGDKATLTISSLQPEDFATYYCALWYSNLWVFGQGTKVEIKGGSGGSQVQLVQSGAEVKKPGASVKVSCKASGYTFTSYDINWVRQAPGQGLEWMGWMNPNSGNTGFAQKFQGRVTMTRDTSTSTVYMELSSLRSEDTAVYYCARDRAVTDYYYGMDVWGQGTLVTVSSGGSGQSVLTQPPSASGTPGQRVTISCSGSRSNIGSNTVNWYQQLPGTAPKLLIYGNNQRPSGVPDRFSGSKSGTSASLAISGLQSEDEADYYCATWDDSLIGWVFGGGTKLTVLGGSGGSEVQLVESGGGLVQPGGSLRLSCAASGFTFSTYAMNWVRQAPGKGLEWVGRIRSKYNNYATYYADSVKDRFTISRDDSKNSLYLQMNSLKTEDTAVYYCARHGNFGNSYVSYFAYWGQGTLVTVSSAAAGSHHHHHH
Human CD33 [1]
  EC50 cytotoxicity on HL-60, E:T 5:1, 20-24 h: 1.3 pM and 137 pg/mL
  EC50 cytotoxicity on KG-1, E:T 5:1, 20-24 h: 1.2 pM and 126 pg/mL
  EC50 cytotoxicity on U-937, E:T 5:1, 20-24 h: 0.8 pM and 84 pg/mL
  EC50 cytotoxicity, mean of HL-60, U-937, KG-1: 1.1 pM and 116 pg/mL
Human CD33 [2]
  IC50 lysis of KG-1 cells with human T cells, E:T 5:1, 24 h: ~0.01 pM
Human CD3 [3]
  CD25 Induction EC50 (PBMC, 24 h): 6 pM
  CD69 Induction EC50 (PBMC, 24 h): 3 pM

B2: CD33/CD3 2×2 T-cell engager 14 (bispecific antibody)
chain: DIQMTQSPSSLSASVGDRVTITCRSSTGAVTTSNYANWVQQKPGKAPKALIGGTNKRAPGVPSRFSGSLIGDKATLTISSLQPEDFATYYCALWYSNLWVFGQGTKVEIKGGSGGSQVQLVQSGAEVKKPGASVKVSCKASGYTFTSYDINWVRQAPGQGLEWMGWMNPNSGNTGFAQKFQGRVTMTRDTSTSTVYMELSSLRSEDTAVYYCARDRANTDFSYGMDVWGQGTLVTVSSGGSGQSVLTQPPSASGTPGQRVTISCSGSRSNIGSNTVNWYQQLPGTAPKLLIYGNNQRPSGVPDRFSGSKSGTSASLAISGLQSEDEADYYCATWDDSLIGWVFGGGTKLTVLGGSGGSEVQLVESGGGLVQPGGSLRLSCAASGFTFSTYAMNWVRQAPGKGLEWVGRIRSKYNNYATYYADSVKDRFTISRDDSKNSLYLQMNSLKTEDTAVYYCARHGNFGNSYVSYFAYWGQGTLVTVSSAAAGSHHHHHH
Human CD33 [1]
  EC50 cytotoxicity on HL-60, E:T 5:1, 20-24 h: 1.6 pM and 168 pg/mL
  EC50 cytotoxicity on KG-1, E:T 5:1, 20-24 h: 2.6 pM and 273 pg/mL
  EC50 cytotoxicity on U-937, E:T 5:1, 20-24 h: 3.6 pM and 378 pg/mL
  EC50 cytotoxicity, mean of HL-60, U-937, KG-1: 2.6 pM and 273 pg/mL
Human CD33 [4]
  EC50 on HL-60 (cytotoxicity): 11.6 pM
Human CD3 [3]
  CD25 Induction EC50 (PBMC, 24 h): 10 pM
  CD69 Induction EC50 (PBMC, 24 h): 7 pM

B3: CD33/CD3 2×2 T-cell engager 16 (bispecific antibody)
chain: DIQMTQSPSSLSASVGDRVTITCRSSTGAVTTSNYANWVQQKPGKAPKALIGGTNKRAPGVPSRFSGSLIGDKATLTISSLQPEDFATYYCALWYSNLWVFGQGTKVEIKGGSGGSQVQLVQSGAEVKKPGASVKVSCKASGYTFTSYDINWVRQAPGQGLEWMGWMNPNSGNTGFAQKFQGRVTMTRDTSTSTVYMELSSLRSEDTAVYYCARDRANTDYSLGMDVWGQGTLVTVSSGGSGQSVLTQPPSASGTPGQRVTISCSGSRSNIGSNTVNWYQQLPGTAPKLLIYGNNQRPSGVPDRFSGSKSGTSASLAISGLQSEDEADYYCATWDDSLIGWVFGGGTKLTVLGGSGGSEVQLVESGGGLVQPGGSLRLSCAASGFTFSTYAMNWVRQAPGKGLEWVGRIRSKYNNYATYYADSVKDRFTISRDDSKNSLYLQMNSLKTEDTAVYYCARHGNFGNSYVSYFAYWGQGTLVTVSSAAAGSHHHHHH
Human CD33 [1]
  EC50 cytotoxicity on HL-60, E:T 5:1, 20-24 h: 1.5 pM and 158 pg/mL
  EC50 cytotoxicity on KG-1, E:T 5:1, 20-24 h: 1.8 pM and 189 pg/mL
  EC50 cytotoxicity on U-937, E:T 5:1, 20-24 h: 1.9 pM and 200 pg/mL
  EC50 cytotoxicity, mean of HL-60, U-937, KG-1: 1.7 pM and 179 pg/mL
Human CD33 [2]
  IC50 lysis of KG-1 cells (separate experiment): 5 pM
  IC50 lysis of KG-1 cells with human T cells, E:T 5:1, 24 h: ~0.5 pM
Human CD33 [5]
  EC50 calcein-release lysis of HL-60, E:T 25:1, 30 min: 4.8 pM
  EC50 calcein-release lysis of HL-60, E:T 25:1, 60 min: 2.5 pM
  EC50 calcein-release lysis of HL-60, E:T 25:1, 120 min: 1.6 pM
  EC50 calcein-release lysis of HL-60, E:T 25:1, 180 min: 1.6 pM
  EC50 calcein-release lysis of HL-60, E:T 25:1, 240 min: 1.5 pM
  EC50 calcein-release lysis of HL-60, E:T 25:1, 300 min: 1.6 pM
Human CD3 [3]
  CD25 Induction EC50 (PBMC, 24 h): 1 pM
  CD69 Induction EC50 (PBMC, 24 h): 2 pM

B4: CD33/CD3 2×2 T-cell engager 18 (bispecific antibody)
chain: EVQLVESGGGLVQPGGSLRLSCAASGFTFSTYAMNWVRQAPGKGLEWVGRIRSKYNNYATYYADSVKDRFTISRDDSKNSLYLQMNSLKTEDTAVYYCARHGNFGNSYVSYFAYWGQGTLVTVSSGGSGGSQSVLTQPPSVSGAPGQRVTISCTGSSSNIGAGYDVHWYQQLPGTAPKLLIYGNSNRPSGVPDRFSGSKSGTSASLAITGLQAEDEADYYCQSYDSSLSDVVFGGGTKLTVLGGSGQVQLVQSGAEVKKPGESLKISCKGSGYSFTSYWIGWVRQMPGKGLEWMGIIYPGDSDTRYSPSFQGQVTISADKSISTAYLQWSSLKASDTAMYYCARHKRGSDAFDIWGQGTTVTVSSGGSGGSDIQMTQSPSSLSASVGDRVTITCRSSTGAVTTSNYANWVQQKPGKAPKALIGGTNKRAPGVPSRFSGSLIGDKATLTISSLQPEDFATYYCALWYSNLWVFGQGTKVEIKAAAGSHHHHHH
notes: Homodimer; His-tagged form
Human CD3 [6]
  Kd: 11900 pM
